{
  "source": "patent US20240270846A1",
  "target": "ECM (extracellular matrix)",
  "assay": "ECL assay on ECM (Matrigel)-coated plate, MRA reference of the same plate or date",
  "note": "Where “and” joins values, the source holds several entries; their conditions need not be identical. Equal entries are not always repeated.",
  "data": [
    {"substance": "MRA (antibody)", "values": [
      {"measurement": "ECL reaction (MRA)", "result": "448 and 564"}
    ]}
  ]
}
